Assay [1] deals with T1, LexA DBD (made from the empty pBTM 116 vector) (UniProt P0A7C2 1-202, limits assumed).
T1 construct: domain: LexA DBD; Bait-only control in the yeast two-hybrid assay
T1 sequence (looked up): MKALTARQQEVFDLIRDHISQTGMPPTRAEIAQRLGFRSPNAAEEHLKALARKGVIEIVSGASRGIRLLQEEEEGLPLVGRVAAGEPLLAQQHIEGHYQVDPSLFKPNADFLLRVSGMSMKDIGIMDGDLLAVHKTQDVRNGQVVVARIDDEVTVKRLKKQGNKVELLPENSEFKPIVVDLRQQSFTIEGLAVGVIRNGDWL
Description: yeast two-hybrid (His growth, β-gal); data not shown.

In assay [2] the target is T2, Recombinant oncogenic HRAS (G12V; residues 1-166) (human, UniProt P01112 1-166).
T2 construct: range 1-166; ELISA and BIAcore: purified from bacteria and loaded with GppNp, a non-hydrolysable GTP analogue; Mammalian two-hybrid: codons 1-166 fused C-terminal to the GAL4 DBD (pM1-RASG12V); Yeast two-hybrid: truncated HRASG12V fused to the LexA DBD (pBTM116-RASG12V); The DBD parts are not written into the chain; also called HaRASG12V; Ha-RASG12V
The assay can be described thus: SPR (BIAcore 2000); HRASG12V-GppNp immobilised on CM5 chip, purified scFv as analyte; BIAcore, purified bacterial scFv in vitro; weak micromolar binding. (In general: SPR reads the build-up and loss of mass on a sensor chip optically.)

The target in assay [3] is T2, Recombinant oncogenic HRAS (G12V; …). The assay can be described thus: surface plasmon resonance (BIAcore 2000), HRASG12V-GppNp immobilised at about 1500 RU, purified scFv injected.

1 molecule from patent publication US20050276800A1 (MEDICAL RESEARCH COUNCIL, published 2005) can be followed below.

B1: anti-RAS scFv I21 (scFv)
scFv: EVQLLESGGGLVQPGGSLRLSCAASGFTFSSYAMSWVRQAPGKGLEWVSTISYGGSNTNYADSVKARFTISRDNSKNTLYLQMNSLRAEDTAVYYCAKGNNAFDYWGQGTLVTVSSGGGGSGGGGSGGGGSTDIQMTQSPSSLSASVGDRVTITCRASQSISSYLNWYQQKPGKAPKLLIYNASALQSGVPSRFSGSGSGTDFTLTISSLQPEDFATYYCQQYTSTPRTFGQGTKVEIKR
notes: also called ICAb I21
With B1, in assay [1], the binding result is on record as “no binding”. Moreover, the Kd (usually the free concentration of one partner at which half of the binding sites on the other are occupied at equilibrium, for simple one-to-one binding) in assay [2] is 2160 nM. Moreover, in assay [3], the Kd is 1310 nM; the koff (usually the rate constant with which the complex falls apart) was 0.0212 s⁻¹; the on-rate constant (kon) – broadly, a measure of how fast the partners come together – came to 16700 M⁻¹ s⁻¹.
